Test results reported in patent US8853367.

Target: chimeric receptor comprising mouse TNFR1 external domain (AA 1 to AA 210) linked to the transmembrane and intracellular domains of mouse RANK (AA 210 to AA 625) (mouse)
Experiment: cell-based or functional assay

Sequence of chimeric receptor comprising mouse TNFR1 external domain (AA 1 to AA 210) linked to the transmembrane and intracellular domains of mouse RANK (AA 210 to AA 625) (mouse) (chain, as listed by the source mutant): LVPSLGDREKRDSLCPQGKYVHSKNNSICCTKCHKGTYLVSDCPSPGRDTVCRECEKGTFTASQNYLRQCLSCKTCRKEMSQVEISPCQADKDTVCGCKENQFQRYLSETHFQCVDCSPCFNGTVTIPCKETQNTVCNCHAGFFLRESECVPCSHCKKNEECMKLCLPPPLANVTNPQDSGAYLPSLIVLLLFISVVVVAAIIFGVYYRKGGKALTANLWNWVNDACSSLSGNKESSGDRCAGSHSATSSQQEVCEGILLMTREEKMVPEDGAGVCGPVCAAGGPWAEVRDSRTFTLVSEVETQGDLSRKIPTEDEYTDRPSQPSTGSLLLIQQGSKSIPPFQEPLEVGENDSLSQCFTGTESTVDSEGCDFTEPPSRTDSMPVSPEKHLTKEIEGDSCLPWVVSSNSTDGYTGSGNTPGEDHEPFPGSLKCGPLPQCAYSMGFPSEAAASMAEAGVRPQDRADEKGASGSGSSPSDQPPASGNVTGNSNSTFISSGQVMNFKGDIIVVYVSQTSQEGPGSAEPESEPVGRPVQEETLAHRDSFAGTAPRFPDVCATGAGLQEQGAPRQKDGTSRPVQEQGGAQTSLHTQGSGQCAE

- osteoclast formation, lowest TNFα concentration still active: 1 ng/mL
Substance: Recombinant mouse TNFα (410-TRNC-050, R&D Systems) (from UniProt P06804 84-235) (ligand)
